Laboratory results from US20170368208A1, “CANCER IMAGING AGENT” (ENDOCYTE, INC., priority 2015, published 2017).
*1 amine or outer side, *2 acyl side, *3 side chain or, on linkers, in order; H or OH if unused. Where a SMILES comes first, the peptide text is derived from it. Side-chain parts run from the residue outwards. [ ]: non-standard residue; d: D form. ξ: configuration not given here. γGlu = O=C(O)[C@H](CCC(=O)[*:2])N[*:1]; ξE = NC(CCC(=O)O)C(=O)O; Dap = NC[C@H](N)C(=O)O; Aoc = NCCCCCCCC(=O)O; CO = O=C([*:1])[*:2]

Experiment: Radiochemical purity and stability of 99mTc-Compound II after room temperature labelling of kit formulations (radio-HPLC)
Format: physicochemical
Details: 0.1 mg tin chloride
Experimental: A Compound II kit vial from Example 2 was removed from the refrigerator and allowed to warm to room temperature (17-27° C.) for 15-30 min. The vial was put into a suitable radioactive shielding container. One to Two milliliter (≦50 mCi) of ^99mTc pertechnetate injection was added to the vial using a lead shielded syringe. Before removing the syringe from the vial, equal volume of headspace was withdrawn in order to normalize the pressure inside the vial. The vial was gently swirled to completely dissolve the powder and then allowed to stand at ambient temperature (17-27° C.) for 15 minutes. 5-6 mL of 0.9% sodium chloride injection, USP, was then added to the vial. The labeled solution was stored at room temperature (17-27° C.) and used within 6 hours of preparation. The Radio-HPLC system used for the following experiment consisted of a Waters 600 intelligent pump, a Bioscan Flow-Count radiodetector, and a Waters Nova-Pak C18 (3.9×150 mm) column, using Laura v1.5 radiochromatogram software. 1-5 μL of the ^99mTc-Compound II sample was injected into the HPLC and eluted with an aqueous mobile phase 0.1% trifluoroacetic acid in water (A) and Acetonitrile (B) at a linear gradient of 25% B to 35% B over 20 minutes at a flow rate of 1 mL/min. […] The radiochemical purity of ^99mTc-Compound II was calculated as follows: Radiochemical purity=isomer A %+isomer B % (FIG. 1) Using the methods described herein, Compound II was subjected to room temperature labelling at varying pH. Using the methods described herein, Compound II was subjected to room temperature labelling with varying amounts of EDTA. Using the methods described herein, Compound II was subjected to room temperature labelling with varying amounts of sodium gluconate.

N[C@@H](CNC(=O)[C@H](Cc1ccccc1)NC(=O)[C@H](Cc1ccccc1)NC(=O)CCCCCCCNC(=O)CC[C@H](NC(=O)NC(CCC(=O)O)C(=O)O)C(=O)O)C(=O)N[C@@H](CC(=O)O)C(=O)N[C@@H](CS)C(=O)O (stereo partly drawn) [EC0652] (H-[Dap]([Phe-Phe-Aoc-γGlu-CO-ξE])-Asp-Cys-OH)
RCP (%) Time (6 Hr) (kit 0.1 mg EC0652, 1 mg sodium gluconate, 0.3 mg EDTA, pH 6.8, 6 Hr): 91.7%
RCP (%) Time (6 Hr) (kit 0.1 mg EC0652, 20 mg sodium gluconate, 0.3 mg EDTA, pH 6.8, 6 Hr): 97.9%
RCP (%) Time (0 Hr) (kit 0.1 mg EC0652, 25 mg sodium gluconate, 0 mg EDTA, pH 6.8, 0 Hr): 85.37%
RCP (%) Time (6 Hr) (kit 0.1 mg EC0652, 25 mg sodium gluconate, 0 mg EDTA, pH 6.8, 6 Hr): 88.06%
RCP (%) Time (0 Hr) (kit 0.1 mg EC0652, 25 mg sodium gluconate, 0.005 mg EDTA, pH 6.8, 0 Hr): 83.69%
RCP (%) Time (6 Hr) (kit 0.1 mg EC0652, 25 mg sodium gluconate, 0.005 mg EDTA, pH 6.8, 6 Hr): 74.46%
RCP (%) Time (0 Hr) (kit 0.1 mg EC0652, 25 mg sodium gluconate, 0.01 mg EDTA, pH 6.8, 0 Hr): 85.92%
RCP (%) Time (6 Hr) (kit 0.1 mg EC0652, 25 mg sodium gluconate, 0.01 mg EDTA, pH 6.8, 6 Hr): 94.03%
RCP (%) Time (0 Hr) (kit 0.1 mg EC0652, 25 mg sodium gluconate, 0.1 mg EDTA, pH 6.8, 0 Hr): 95.77%
RCP (%) Time (6 Hr) (kit 0.1 mg EC0652, 25 mg sodium gluconate, 0.1 mg EDTA, pH 6.8, 6 Hr): 95.33%
RCP (%) Time (0 Hr) (kit 0.1 mg EC0652, 25 mg sodium gluconate, 0.30 mg EDTA, pH 6.8, 0 Hr (Table 5)): 97.02%
RCP (%) Time (6 Hr) (kit 0.1 mg EC0652, 25 mg sodium gluconate, 0.30 mg EDTA, pH 6.8, 6 Hr (Table 5)): 97.49%
RCP (%) Time (6 Hr) (kit 0.1 mg EC0652, 25 mg sodium gluconate, 0.3 mg EDTA, pH 6.8, 6 Hr (Table 6)): 98.5%
Radiochemical Purity (%) Time (0 Hr) (kit 0.1 mg EC0652, 25 mg sodium gluconate, 0.3 mg EDTA, pH 5.1, 0 Hr after room temperature 99mTc labelling): 97.7%
Radiochemical Purity (%) Time (6 Hr) (kit 0.1 mg EC0652, 25 mg sodium gluconate, 0.3 mg EDTA, pH 5.1, 6 Hr after room temperature 99mTc labelling): 85.5%
Radiochemical Purity (%) Time (0 Hr) (kit 0.1 mg EC0652, 25 mg sodium gluconate, 0.3 mg EDTA, pH 6.2, 0 Hr): 96.8%
Radiochemical Purity (%) Time (6 Hr) (kit 0.1 mg EC0652, 25 mg sodium gluconate, 0.3 mg EDTA, pH 6.2, 6 Hr): 94.1%
Radiochemical Purity (%) Time (0 Hr) (kit 0.1 mg EC0652, 25 mg sodium gluconate, 0.3 mg EDTA, pH 6.8, 0 Hr (Table 3)): 97.4%
Radiochemical Purity (%) Time (6 Hr) (kit 0.1 mg EC0652, 25 mg sodium gluconate, 0.3 mg EDTA, pH 6.8, 6 Hr (Table 3)): 94.8%
Radiochemical Purity (%) Time (0 Hr) (kit 0.1 mg EC0652, 25 mg sodium gluconate, 0.3 mg EDTA, pH 7.4, 0 Hr): 96.5%
Radiochemical Purity (%) Time (6 Hr) (kit 0.1 mg EC0652, 25 mg sodium gluconate, 0.3 mg EDTA, pH 7.4, 6 Hr): 96.0%
RCP (%) Time (0 Hr) (kit 0.1 mg EC0652, 25 mg sodium gluconate, 1.0 mg EDTA, pH 6.8, 0 Hr): 96.69%
RCP (%) Time (6 Hr) (kit 0.1 mg EC0652, 25 mg sodium gluconate, 1.0 mg EDTA, pH 6.8, 6 Hr): 96.87%
RCP (%) Time (6 Hr) (kit 0.1 mg EC0652, 30 mg sodium gluconate, 0.3 mg EDTA, pH 6.8, 6 Hr): 97.0%
RCP (%) Time (6 Hr) (kit 0.1 mg EC0652, 50 mg sodium gluconate, 0.3 mg EDTA, pH 6.8, 6 Hr): 98.0%
